Assay results taken from patent publication US20170096479A1 (published 2017).
Changes are numbered by the printed parent chain. Names may count otherwise.

Key:
human VEGF (hVEGF) [1] = biological target: T1, human VEGF (hVEGF) (human, UniProt P15692 181-395); experiment: cell-based or functional assay
T1 sequence: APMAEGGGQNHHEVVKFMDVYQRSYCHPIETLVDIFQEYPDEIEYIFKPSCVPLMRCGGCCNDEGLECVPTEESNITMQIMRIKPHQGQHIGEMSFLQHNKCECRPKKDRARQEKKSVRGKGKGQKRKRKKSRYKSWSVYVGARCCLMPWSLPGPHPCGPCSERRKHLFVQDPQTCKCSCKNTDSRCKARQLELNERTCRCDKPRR

human VEGF (hVEGF) [2] = biological target: T1, human VEGF (hVEGF); experiment: SPR BIACORE kinetics
human VEGF165 = human VEGF165 (human, UniProt P15692-4 27-191); experiment: cell-based or functional assay
human VEGF (hVEGF) [3] = biological target: T1, human VEGF (hVEGF); experiment: SPR BIACORE T200, single cycle
Procedure: To confirm the results obtained from the deep mutagenesis scanning, selected mutations were expressed and purified, and their affinity towards VEGF was measured using BIACORE® surface plasmon resonance (SPR) and their thermostability (as assessed by melting temperature, Tₘ) was measured using differential scanning fluorimetry (DSF).
To determine the binding affinity of selected Fab variants, SPR measurement with a BIACORE® T200 instrument was used. Briefly, series S sensor chip CM5 was activated with 1-ethyl-3-(3-dimethylaminopropyl) carbodiimide (EDC) and N-hydroxysuccinimide (NHS) reagents according to the supplier's instructions, and human VEGF (hVEGF) was coupled to achieve 50-80 response units (RU), then following by blocking un-reacted groups with 1 M ethanolamine.
Three-fold serial dilutions of Fab in HBS-P buffer (0.01 M HEPES pH 7.4, 0.15 M NaCl, 0.005% surfactant P20) from low (0.02 nM) to high (50 nM) were injected (flow rate: 30 μl/min). The binding responses on hVEGF were corrected by subtracting of RU from a blank flow cell. The sensorgram was recorded and subject to reference and buffer subtraction before evaluating by BIACORE® T200 Evaluation Software (version 2.0). Association rates (kₒₙ) and dissociation rates (koff) were calculated using a simple one-to-one Langmuir binding model. The equilibrium dissociation constant (Kd) was calculated as the ratio koff/kₒₙ.

B1: G6.31 AAEE (LC-N94A.LC-F83A.HC-A40E.HC-T57E) (Fab, V domains shown)
VH: EVQLVESGGGLVQPGGSLRLSCAASGFTISDYWIHWVRQEPGKGLEWVAGITPAGGYEYYADSVKGRFTISADTSKNTAYLQMNSLRAEDTAVYYCARFVFFLPYAMDYWGQGTLVTVSS
VL: DIQMTQSPSSLSASVGDRVTITCRASQDVSTAVAWYQQKPGKAPKLLIYSASFLYSGVPSRFSGSGSGTDFTLTISSLQPEDAATYYCQQGYGAPFTFGQGTKVEIK
IC50 relative to G6.31, VEGF-induced HUVEC migration assay (human VEGF (hVEGF) [1]): 0.9 relative to G6.31

B2: R19HCLC2 (Fab, V domains shown)
VH: B1 VH with V2E, S7E, G16E, T28E, K43E, K65E, K76E, S85E, T114E
VL: B1 VL with R18E, K42E, S76E
notes: Fab
Kd (human VEGF (hVEGF) [2]): 94.9 pM

B3: HA100K-G6.31 AARR (Fab, V domains shown)
VH: B1 VH with E40A, E58T, Y59R, N84R
VL: B1 VL
modifications: free hinge cysteine of the Fab-C heavy chain conjugated to maleimide-functionalized linear hyaluronic acid (Mw 100 kDa)
qAC50 (equivalent to IC50), pKDR receptor activation assay on KDR-CHO cells (human VEGF165): 0.135 nM

B4: G6.31 LC-N94A (Fab, V domains shown)
VH: B1 VH with E40A, E58T
VL: B1 VL with A83F
IC50 relative to G6.31, VEGF-induced HUVEC migration assay (human VEGF (hVEGF) [1]): 5.2 relative to G6.31

B5: G6.31 LC-Q89T (Fab, V domains shown)
VH: B1 VH with E40A, E58T
VL: B1 VL with A83F, Q89T, A94N
notes: Fab
kon (human VEGF (hVEGF) [3]): 1.17e+08 M⁻¹ s⁻¹

B6: G6.31 HC-T57E (Fab, name in Kabat numbering, V domains shown)
VH: B1 VH with E40A
VL: B1 VL with A83F, A94N
notes: Fab
kon (human VEGF (hVEGF) [3]): 1.93e+08 M⁻¹ s⁻¹

B7: G6.31 LC-N94A.LC-F83A (Fab, V domains shown)
VH: B1 VH with E40A, E58T
VL: B1 VL
IC50 relative to G6.31, VEGF-induced HUVEC migration assay (human VEGF (hVEGF) [1]): 5.1 relative to G6.31
